Experiments:
Assay in all cases: Competitive binding assay using cell extracts (Western blot)
[1] = target: T1, PKC-ε (Homo sapiens, UniProt Q02156); design: cytoplasmic extracts from different cell lines expressing appropriate PKC isoforms; endogenous in cells; host or cells: CCD16Lu, LnCAP, Du145, MDAMB231, LS180; key: —: no detectable affinity; Low to very low affinity at 10X or 20X or both PRE concentrations in at least one cell line in the cell extract assay; Low affinity in purified isoform assay.; Moderate affinity at 10X or 20X or both PRE concentrations in at least one cell line in the cell extract assay.; High affinity at 10X or 20X or both PRE concentrations in at least one cell line in the cell extract assay; High affinity in purified isoform assay; conditions: Cell extract; PRE at 10X, 20X antibody concentration; Table 20
T1 sequence (Q02156 1-737): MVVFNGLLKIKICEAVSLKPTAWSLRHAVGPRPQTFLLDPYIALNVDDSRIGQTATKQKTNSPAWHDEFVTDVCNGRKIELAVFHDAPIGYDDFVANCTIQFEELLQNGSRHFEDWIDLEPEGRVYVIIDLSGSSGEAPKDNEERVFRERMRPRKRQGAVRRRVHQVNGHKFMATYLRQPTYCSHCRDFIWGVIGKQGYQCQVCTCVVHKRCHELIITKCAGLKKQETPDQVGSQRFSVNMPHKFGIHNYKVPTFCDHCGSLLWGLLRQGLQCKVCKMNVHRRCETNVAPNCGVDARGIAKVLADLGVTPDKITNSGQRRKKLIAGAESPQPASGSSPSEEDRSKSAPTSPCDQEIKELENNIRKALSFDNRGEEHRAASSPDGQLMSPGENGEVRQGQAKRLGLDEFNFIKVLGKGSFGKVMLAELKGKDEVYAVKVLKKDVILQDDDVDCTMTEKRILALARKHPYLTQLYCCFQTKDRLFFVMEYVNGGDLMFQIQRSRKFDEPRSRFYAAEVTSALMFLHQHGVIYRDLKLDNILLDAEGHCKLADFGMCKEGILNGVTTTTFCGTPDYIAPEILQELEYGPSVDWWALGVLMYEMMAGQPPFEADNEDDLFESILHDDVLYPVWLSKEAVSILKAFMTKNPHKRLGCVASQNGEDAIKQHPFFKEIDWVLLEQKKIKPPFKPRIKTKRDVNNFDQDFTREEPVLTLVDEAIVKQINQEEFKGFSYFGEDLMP
Method: (§1) Binding efficiency and specificity of the peptides PRE 2, 3, 4, 5, 6, 7, 8, 9, 10, 11, 12 and 13 (see Table 3) was also tested using cytoplasmic extracts from different cell lines expressing appropriate PKC isoforms as described for Example 1. Briefly, the protein cytoplasmic extracts were separated by electrophoresis and transferred onto nitrocellulose membranes by standard Western blotting procedures. The bands on the Western blots were detected with matching primary antibodies and alkaline phosphatase conjugated secondary antibody. The bands were then scanned and the relative density measurements obtained.
(§2) This procedure to assess the binding characteristics of the PREs is based on competition binding of the PRE with the primary anti-isoform PKC specific antibodies. The lower the measured band density, the greater the binding of the PRE to the PKC isoform. The PREs were added at 10 and 20 times (10×, 20×) the primary antibody concentration, according to classical competition between antigenic peptide and primary antibody. The following cell lines (obtained from the ATCC) were used: H661—NCI human lung carcinoma NSCLC; MDAMB231—human highly invasive breast cancer cell line from pleural effusion; LS180—human colon adenocarcinoma; LnCAP—human prostate adenocarcinoma; CCD16Lu—human lung fibroblasts; Du145—human prostate carcinoma brain metastasis, and T24—human bladder carcinoma.
(§3) In these cases, the 20× band density figures relative to control and 10× values were reliable.

[2] = target: PKC-βI (Homo sapiens, UniProt P05771); design: cytoplasmic extracts from different cell lines expressing appropriate PKC isoforms; endogenous in cells; host or cells: H661, MDAMB231, LS180, T24; key to Affinity for PKC isoform βI: —: no detectable affinity; Low to very low affinity at 10X or 20X or both PRE concentrations in at least one cell line in the cell extract assay; Low affinity in purified isoform assay.; Moderate affinity at 10X or 20X or both PRE concentrations in at least one cell line in the cell extract assay.; High affinity at 10X or 20X or both PRE concentrations in at least one cell line in the cell extract assay; High affinity in purified isoform assay; conditions: for Affinity for PKC isoform βI: Cell extract, PRE at 10X, 20X antibody concentration, Table 20
Method: as §1, §2, §3

[3] = target: T2, PKC-ζ (Homo sapiens, UniProt Q05513); design: cytoplasmic extracts from different cell lines expressing appropriate PKC isoforms; endogenous in cells; host or cells: MDAMB231, LnCAP, Du145, H661, CCD16Lu (human, from ATCC); key: —: no detectable affinity; Low to very low affinity at 10X or 20X or both PRE concentrations in at least one cell line in the cell extract assay; Low affinity in purified isoform assay.; Moderate affinity at 10X or 20X or both PRE concentrations in at least one cell line in the cell extract assay.; High affinity at 10X or 20X or both PRE concentrations in at least one cell line in the cell extract assay; High affinity in purified isoform assay; conditions: Cell extract; PRE at 10X, 20X antibody concentration; Table 20
T2 sequence (Q05513 1-592): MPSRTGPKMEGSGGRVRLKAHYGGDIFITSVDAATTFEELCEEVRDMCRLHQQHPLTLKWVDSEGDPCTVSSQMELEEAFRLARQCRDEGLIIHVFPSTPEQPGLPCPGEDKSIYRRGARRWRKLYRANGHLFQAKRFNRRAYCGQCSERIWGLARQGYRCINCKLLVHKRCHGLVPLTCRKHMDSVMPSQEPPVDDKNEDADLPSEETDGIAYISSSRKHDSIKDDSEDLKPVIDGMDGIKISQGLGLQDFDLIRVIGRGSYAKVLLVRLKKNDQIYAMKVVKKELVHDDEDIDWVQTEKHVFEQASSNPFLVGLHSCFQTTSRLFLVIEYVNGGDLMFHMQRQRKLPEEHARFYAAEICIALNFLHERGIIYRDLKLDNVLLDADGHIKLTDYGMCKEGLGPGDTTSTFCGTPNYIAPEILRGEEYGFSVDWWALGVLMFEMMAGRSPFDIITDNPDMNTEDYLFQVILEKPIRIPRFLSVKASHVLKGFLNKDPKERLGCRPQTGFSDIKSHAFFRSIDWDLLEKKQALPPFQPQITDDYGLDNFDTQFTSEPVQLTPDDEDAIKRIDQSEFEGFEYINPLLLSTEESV
Method: as §1, §2, §3

PKC-βI, sequence (P05771 2-671): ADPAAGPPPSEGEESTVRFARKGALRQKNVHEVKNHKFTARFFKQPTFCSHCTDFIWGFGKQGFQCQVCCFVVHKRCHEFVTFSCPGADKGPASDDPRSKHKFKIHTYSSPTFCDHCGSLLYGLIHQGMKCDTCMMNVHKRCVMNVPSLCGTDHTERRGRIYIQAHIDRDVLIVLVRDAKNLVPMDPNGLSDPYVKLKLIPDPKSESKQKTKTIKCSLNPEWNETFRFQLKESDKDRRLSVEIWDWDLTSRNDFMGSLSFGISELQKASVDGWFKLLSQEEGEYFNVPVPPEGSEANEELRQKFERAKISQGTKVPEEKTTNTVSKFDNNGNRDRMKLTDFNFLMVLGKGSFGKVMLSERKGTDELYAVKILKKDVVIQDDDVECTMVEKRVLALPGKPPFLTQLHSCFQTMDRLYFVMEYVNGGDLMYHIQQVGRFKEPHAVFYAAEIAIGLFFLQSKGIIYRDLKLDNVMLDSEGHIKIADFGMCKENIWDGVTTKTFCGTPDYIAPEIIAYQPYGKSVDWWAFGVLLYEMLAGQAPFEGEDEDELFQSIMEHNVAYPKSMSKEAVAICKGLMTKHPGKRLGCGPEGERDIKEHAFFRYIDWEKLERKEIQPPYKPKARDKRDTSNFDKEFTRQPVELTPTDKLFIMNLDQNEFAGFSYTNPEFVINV

Substance | Affinity for PKC isoform ε [1] | Affinity for PKC isoform βI [2] | Affinity for PKC isoform ζ [3] | affinity for PKC-βI ([2]; cell extracts)
Ac-AKGIQEVKGGDAQNLIGISI-NH2 [PRE 3] | L | L | — | 
Ac-AKGIQEVKGGKDAQNLIGISI-NH2 [PRE 5] | L | H | L/H | 
Ac-ISIGILNQADK-NH2 [PRE 10] | M/L | M | M/L | 
Ac-ISIGILQNADK-NH2 [PRE 7] | — | — | — | 
Ac-KDANQLIGISI-NH2 [PRE 6] | M | H | — | 
Ac-KDAQNLI-NH2 [PRE 12] | — | — | M/H | 
Ac-KDAQNLIGISI-NH2 [PRE 4, Ac-KDAQNLIGISI-NH2] | H/L | H | — | good affinity for PKC-βI
Ac-RDAQNLI-NH2 [PRE 13] | — | — | — | 
Ac-RDAQNLIGISI-NH2 [PRE 11] | — | H | — | 
Ac-isigilgnadk-NH2 [PRE 9] | M/L | M | M/L | 
ILEDKGGDAQNLIGISI [PRE 8] | L |  |  | 
RRKKGGKDFVVKR [PRE 1] |  | H | L | 
